Patent publication US20210032299A1 (Eli Lilly, published 2021)
Starred links: 1 amine or outer side, 2 acyl side, 3 side chain; linkers in the order of their positions; H or OH if unused. Non-standard residues stand in square brackets, D forms with d. Groups on a side chain read outwards from the residue. No end group written: not given here. *: point of attachment. C20 diacid = O=C(O)CCCCCCCCCCCCCCCCCCC(=O)*; γGlu = O=C(O)[C@H](CCC(=O)[*:2])N[*:1]; αMeF = C[C@](N)(Cc1ccccc1)C(=O)O; 4Pal = N[C@@H](Cc1ccncc1)C(=O)O; αMeL = CC(C)C[C@](C)(N)C(=O)O; AEEA = NCCOCCOCC(=O)O; Aib = CC(C)(N)C(=O)O

T1: human glucose-dependent insulinotropic peptide receptor (human, UniProt P48546 22-466)
T1 sequence (looked up): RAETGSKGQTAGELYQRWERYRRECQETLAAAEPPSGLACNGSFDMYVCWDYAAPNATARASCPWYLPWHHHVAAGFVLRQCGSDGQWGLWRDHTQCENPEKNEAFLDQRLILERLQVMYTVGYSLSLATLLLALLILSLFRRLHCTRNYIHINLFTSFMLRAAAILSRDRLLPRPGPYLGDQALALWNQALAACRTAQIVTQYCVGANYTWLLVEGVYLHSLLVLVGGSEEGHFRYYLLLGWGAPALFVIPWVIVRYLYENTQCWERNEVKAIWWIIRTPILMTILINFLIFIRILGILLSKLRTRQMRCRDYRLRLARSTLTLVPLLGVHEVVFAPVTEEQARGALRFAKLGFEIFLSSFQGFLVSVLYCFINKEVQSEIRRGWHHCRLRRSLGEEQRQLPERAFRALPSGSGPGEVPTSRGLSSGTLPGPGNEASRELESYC


How the values were obtained:
Assay in all cases: cell-based or functional assay
[1] = biological target: human GLP-1 receptor (human, UniProt P43220 24-463)
[2] = biological target: human glucagon receptor (human, UniProt P47871 26-477)
Chain of human glucagon receptor (P47871 26-477): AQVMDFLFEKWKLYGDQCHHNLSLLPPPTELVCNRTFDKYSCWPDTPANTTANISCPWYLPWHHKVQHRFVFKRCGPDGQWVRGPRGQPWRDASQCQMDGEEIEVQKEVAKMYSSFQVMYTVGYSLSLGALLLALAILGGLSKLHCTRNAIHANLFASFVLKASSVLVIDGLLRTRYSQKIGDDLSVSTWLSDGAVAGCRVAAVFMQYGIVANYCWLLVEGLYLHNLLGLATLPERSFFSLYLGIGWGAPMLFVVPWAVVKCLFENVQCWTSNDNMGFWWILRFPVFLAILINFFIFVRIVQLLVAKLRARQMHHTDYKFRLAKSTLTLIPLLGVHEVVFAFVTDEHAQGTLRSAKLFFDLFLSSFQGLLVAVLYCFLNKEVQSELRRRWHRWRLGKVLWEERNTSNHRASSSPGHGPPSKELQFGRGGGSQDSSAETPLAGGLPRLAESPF

[3] = biological target: T1, human glucose-dependent insulinotropic …

Row | Binder | hGLP1R cAMP Rel EC50 [1] [nM] | hGcgR cAMP Rel EC50 [2] [nM] | hGIPR cAMP Rel EC50 [3] [nM]
1 | Y[Aib]EGT[αMeF]ISDYSI[αMeL]LDKK([AEEA-AEEA-γGlu-C20 diacid])HQ[Aib]EFVE[4Pal]LLATGPSSGAPPPS-NH2 (N-terminus assumed; SMILES CC[C@H](C)[C@H](NC(=O)[C@H](CO)NC(=O)[C@H](Cc1ccc(O)cc1)NC(=O)[C@H](CC(=O)O)NC(=O)[C@H](CO)NC(=O)[C@@H](NC(=O)[C@](C)(Cc1ccccc1)NC(=O)[C@@H](NC(=O)CNC(=O)[C@H](CCC(=O)O)NC(=O)C(C)(C)NC(=O)[C@@H](N)Cc1ccc(O)cc1)[C@@H](C)O)[C@@H](C)CC)C(=O)N[C@@](C)(CC(C)C)C(=O)N[C@@H](CC(C)C)C(=O)N[C@@H](CC(=O)O)C(=O)N[C@@H](CCCCN)C(=O)N[C@@H](CCCCNC(=O)COCCOCCNC(=O)COCCOCCNC(=O)CC[C@H](NC(=O)CCCCCCCCCCCCCCCCCCC(=O)O)C(=O)O)C(=O)N[C@@H](Cc1c[nH]cn1)C(=O)N[C@@H](CCC(N)=O)C(=O)NC(C)(C)C(=O)N[C@@H](CCC(=O)O)C(=O)N[C@@H](Cc1ccccc1)C(=O)N[C@H](C(=O)N[C@@H](CCC(=O)O)C(=O)N[C@@H](Cc1ccncc1)C(=O)N[C@@H](CC(C)C)C(=O)N[C@@H](CC(C)C)C(=O)N[C@@H](C)C(=O)N[C@H](C(=O)NCC(=O)N1CCC[C@H]1C(=O)N[C@@H](CO)C(=O)N[C@@H](CO)C(=O)NCC(=O)N[C@@H](C)C(=O)N1CCC[C@H]1C(=O)N1CCC[C@H]1C(=O)N1CCC[C@H]1C(=O)N[C@@H](CO)C(N)=O)[C@@H](C)O)C(C)C) [Example 61] | 192 | > 5000 | 0.0167
2 | Y[Aib]EGT[αMeF]ISDYSI[αMeL]LDKK([AEEA-AEEA-γGlu-C20 diacid])HQ[Aib]EFVE[4Pal]LLAQGPSSGAPPPS-NH2 (N-terminus assumed; SMILES CC[C@H](C)[C@H](NC(=O)[C@H](CO)NC(=O)[C@H](Cc1ccc(O)cc1)NC(=O)[C@H](CC(=O)O)NC(=O)[C@H](CO)NC(=O)[C@@H](NC(=O)[C@](C)(Cc1ccccc1)NC(=O)[C@@H](NC(=O)CNC(=O)[C@H](CCC(=O)O)NC(=O)C(C)(C)NC(=O)[C@@H](N)Cc1ccc(O)cc1)[C@@H](C)O)[C@@H](C)CC)C(=O)N[C@@](C)(CC(C)C)C(=O)N[C@@H](CC(C)C)C(=O)N[C@@H](CC(=O)O)C(=O)N[C@@H](CCCCN)C(=O)N[C@@H](CCCCNC(=O)COCCOCCNC(=O)COCCOCCNC(=O)CC[C@H](NC(=O)CCCCCCCCCCCCCCCCCCC(=O)O)C(=O)O)C(=O)N[C@@H](Cc1c[nH]cn1)C(=O)N[C@@H](CCC(N)=O)C(=O)NC(C)(C)C(=O)N[C@@H](CCC(=O)O)C(=O)N[C@@H](Cc1ccccc1)C(=O)N[C@H](C(=O)N[C@@H](CCC(=O)O)C(=O)N[C@@H](Cc1ccncc1)C(=O)N[C@@H](CC(C)C)C(=O)N[C@@H](CC(C)C)C(=O)N[C@@H](C)C(=O)N[C@@H](CCC(N)=O)C(=O)NCC(=O)N1CCC[C@H]1C(=O)N[C@@H](CO)C(=O)N[C@@H](CO)C(=O)NCC(=O)N[C@@H](C)C(=O)N1CCC[C@H]1C(=O)N1CCC[C@H]1C(=O)N1CCC[C@H]1C(=O)N[C@@H](CO)C(N)=O)C(C)C) [Example 60] | 71 | > 5000 | 0.0369
